Measurements: article PMC12032115

Target: PTPRF (UniProt P10586)
Test: flow cytometry

Chain of PTPRF (P10586 30-1907): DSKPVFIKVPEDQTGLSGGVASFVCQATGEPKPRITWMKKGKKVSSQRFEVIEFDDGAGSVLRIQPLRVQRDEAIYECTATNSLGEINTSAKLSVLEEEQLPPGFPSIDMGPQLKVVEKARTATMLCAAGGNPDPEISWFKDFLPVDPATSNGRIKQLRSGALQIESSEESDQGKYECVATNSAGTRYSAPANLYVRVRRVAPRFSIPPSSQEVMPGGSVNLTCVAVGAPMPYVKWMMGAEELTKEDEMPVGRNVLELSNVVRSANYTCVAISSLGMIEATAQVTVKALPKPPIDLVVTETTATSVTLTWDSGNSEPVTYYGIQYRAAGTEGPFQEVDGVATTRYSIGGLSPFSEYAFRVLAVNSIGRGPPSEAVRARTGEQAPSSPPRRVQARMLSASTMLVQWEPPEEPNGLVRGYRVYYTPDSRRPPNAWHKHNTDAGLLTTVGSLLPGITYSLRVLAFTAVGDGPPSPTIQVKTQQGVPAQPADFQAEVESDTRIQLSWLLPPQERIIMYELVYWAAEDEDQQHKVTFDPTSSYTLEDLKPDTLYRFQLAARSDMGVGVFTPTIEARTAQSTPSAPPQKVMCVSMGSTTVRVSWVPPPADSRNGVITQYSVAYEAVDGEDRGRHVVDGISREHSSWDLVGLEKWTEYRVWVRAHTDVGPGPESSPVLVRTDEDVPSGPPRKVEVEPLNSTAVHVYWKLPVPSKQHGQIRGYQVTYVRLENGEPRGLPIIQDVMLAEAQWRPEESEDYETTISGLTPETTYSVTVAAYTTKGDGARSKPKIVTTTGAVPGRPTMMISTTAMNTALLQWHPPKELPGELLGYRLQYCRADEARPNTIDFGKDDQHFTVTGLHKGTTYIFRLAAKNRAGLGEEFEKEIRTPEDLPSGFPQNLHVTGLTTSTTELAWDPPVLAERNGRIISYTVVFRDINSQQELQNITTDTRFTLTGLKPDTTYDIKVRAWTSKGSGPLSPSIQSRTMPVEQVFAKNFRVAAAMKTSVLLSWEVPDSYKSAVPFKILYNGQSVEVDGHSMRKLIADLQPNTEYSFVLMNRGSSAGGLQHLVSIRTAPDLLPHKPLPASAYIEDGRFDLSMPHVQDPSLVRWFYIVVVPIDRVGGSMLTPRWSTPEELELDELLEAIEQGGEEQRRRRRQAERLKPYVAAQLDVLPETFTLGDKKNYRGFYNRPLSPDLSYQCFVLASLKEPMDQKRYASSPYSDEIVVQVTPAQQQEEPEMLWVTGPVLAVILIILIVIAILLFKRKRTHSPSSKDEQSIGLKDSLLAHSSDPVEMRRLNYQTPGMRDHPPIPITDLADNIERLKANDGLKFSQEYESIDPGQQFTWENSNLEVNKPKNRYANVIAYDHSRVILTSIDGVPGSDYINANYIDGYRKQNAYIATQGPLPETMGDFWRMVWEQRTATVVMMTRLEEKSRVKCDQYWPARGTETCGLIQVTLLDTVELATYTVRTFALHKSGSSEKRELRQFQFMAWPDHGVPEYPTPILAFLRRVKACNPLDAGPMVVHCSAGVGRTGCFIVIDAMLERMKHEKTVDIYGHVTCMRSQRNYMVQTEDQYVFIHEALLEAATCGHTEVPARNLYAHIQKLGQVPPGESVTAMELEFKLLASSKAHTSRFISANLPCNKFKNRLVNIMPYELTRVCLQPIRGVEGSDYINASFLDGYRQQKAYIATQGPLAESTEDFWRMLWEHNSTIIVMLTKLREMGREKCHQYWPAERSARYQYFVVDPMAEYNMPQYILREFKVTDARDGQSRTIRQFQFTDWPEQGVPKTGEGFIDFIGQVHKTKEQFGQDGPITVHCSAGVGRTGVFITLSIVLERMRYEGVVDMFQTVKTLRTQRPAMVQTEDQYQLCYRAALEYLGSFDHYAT

TGGAGGATATAGGTTGGCTTAGGTGGCTTTGCGTTGGGTGTGGTGCATATCCTCCA [ZAJ4a]
Kd: 23.3 nM
